For one test, the target named is SAS-6 head domain (UniProt Q6UVJ0). The settings on record: cited from earlier work.
For test [1], the target named is T1, SAS-5::His6, full-length, refolded in vitro (C. elegans, UniProt Q20010 1-404, a glycine codon was introduced immediately next to initiator methionine).
T1 construct: SAS-5 of C. elegans, longer isoform SAS-5a, full length; codon-optimised gene in pET21b (NdeI/HindIII); a glycine codon was put next to the initiator methionine; Prey in the pull-downs with GST-ZYG-1 fragment baits; also called full-length SAS-5; SAS-5::6XHis; not shown: His6, C-terminal, kept
T1 sequence (looked up): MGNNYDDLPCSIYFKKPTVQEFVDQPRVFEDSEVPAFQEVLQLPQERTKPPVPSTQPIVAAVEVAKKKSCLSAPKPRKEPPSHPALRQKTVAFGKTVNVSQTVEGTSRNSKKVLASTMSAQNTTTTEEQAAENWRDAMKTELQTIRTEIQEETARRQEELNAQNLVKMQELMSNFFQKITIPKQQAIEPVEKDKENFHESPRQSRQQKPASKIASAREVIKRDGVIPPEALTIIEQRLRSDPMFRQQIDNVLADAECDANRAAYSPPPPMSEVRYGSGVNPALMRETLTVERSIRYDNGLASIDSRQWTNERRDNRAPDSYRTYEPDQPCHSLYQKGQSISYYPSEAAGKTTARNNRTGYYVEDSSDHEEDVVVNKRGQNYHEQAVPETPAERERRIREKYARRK
The experiment in a line: pull-down; GST-ZYG-1 fragment baits (4.32 mM as printed) on magnetic glutathione beads, blocked with Odyssey blocking buffer; full-length SAS-5 prey (0.2 mM as printed) 1 h at 4 °C; washed with 50 mM Tris pH 8.0, 300 mM NaCl, 5 mM DTT; immunoblot with anti-GST and anti-SAS-5; GST alone as negative control. The settings on record: both partners purified. A general note: A western blot detects proteins with antibodies after separation by electrophoresis.

Take SAS-6 head domain (from UniProt Q6UVJ0): the Kd (in general, the equilibrium constant for the complex coming apart) in the test with SAS-6 head domain is 75 µM.

B1: GST-ZYG-1 cryptic polo box (CPB) fragment spanning 338-564 (domain or fragment, C. elegans, UniProt Q9GT24 338-564, looked up)
chain: GTVPPSREDRNRSQLWPIRMDRLEGQRVCTAGGRYIVELDTRCRFEVAAQGNFVKRILIVEVDEMVQTVYVHRIPDRTVRGRNGEEELITLTNNPFVYTSYSQMPKEVQNDYMRLQKMVAVTISGRVAKVTFRRPSQFPDAQAQLMENGDLRIKLPRSVIVRKMDNGEIFNCIDGIATQKQAVSGITLTKVNEVYKYLIRFEQCLNGMDRGMVCFPIVFSAGTNMVG
notes: ZYG-1 of C. elegans, cryptic polo box (CPB), residues 338-564; also called ZYG-1 CPB; not shown: GST, N-terminal, kept; His6, C-terminal, kept
For B1, the binding result in test [1] is given as “binds”.

B2: GST-ZYG-1(1-250) K41M (kinase domain, C-terminal 6X-His) (domain or fragment, C. elegans, UniProt Q9GT24 1-250, looked up)
chain: MSGGKSGSRLSAYSHLKEIGKGGFGVVYAAQRENGEKVAIMRIDKKVPKNRVWTEIQTMKELKKSKYVVEFYEDFVEDGYTYIVMELCEGGSLQAYVREHGALDDATAVHVLRQLISAVSFMHRVNVIHRDLSAGNVFIKDSKKKKMTVKLGDFGLATTLGRGETTCTIVGTPGFIAPQVYDQEYTQSADVYSLGAVLYTMLTARNPPPKGLPPTCGMSPNAARLVEQMMDTDAKKRIPLTQIVLSEFMY
notes: ZYG-1 of C. elegans, kinase domain, residues 1-250, with K41M (used to reduce toxicity to E. coli); also called kinase domain (amino acids 1-250); not shown: GST, N-terminal, kept; His6, C-terminal, kept
B2: in test [1], the binding result is reported as “binds”.

Source of the values: paper PMC11169420, “The kinase ZYG-1 phosphorylates the cartwheel protein SAS-5 to drive centriole assembly in C. elegans” (EMBO Reports, 2024).
